Experimental data reported in article PMC3777412 (Nature communications, 2013).
Where no end group is shown, it is not given here. [ ]: non-standard residue; d: D form. The star is where a group is joined. Biotin = O=C1N[C@H]2[C@H](CS[C@H]2CCCCC(=O)*)N1; pY = N[C@@H](Cc1ccc(OP(=O)(O)O)cc1)C(=O)O

Molecular target: Grb2, histidine-tagged, purified (UniProt P62993 1-217)
Assay: SPR

Grb2, histidine-tagged, purified, sequence (P62993 whole entry): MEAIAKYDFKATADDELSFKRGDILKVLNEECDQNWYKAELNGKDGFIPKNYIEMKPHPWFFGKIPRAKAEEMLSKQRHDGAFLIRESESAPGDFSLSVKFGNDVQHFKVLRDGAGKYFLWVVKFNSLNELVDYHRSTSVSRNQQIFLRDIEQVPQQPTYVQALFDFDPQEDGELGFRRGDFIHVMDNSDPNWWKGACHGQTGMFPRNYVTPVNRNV

| Binder | Kd |
| --- | --- |
| Biotin-ASASAKGHE[pY]TNIKYS [pY542 peptide] | 118 ± 10.3 nM |
| Biotin-ASASASARV[pY]ENVGLM [pY580 peptide] | 68.5 ± 8.7 nM |
